# Test results reported in patent US20180312587A1 (ADURO BIOTECH HOLDINGS EUROPE B V, published 2018).
# Where two headings read alike, the source gives them in different places.
# Assays:
# human SIRPα variant 2 [1] = target: T1, human SIRPα variant 2 (human, UniProt P78324 31-504); assay: CELISA, CHO-K1 transfectants
# T1 construct: full length ORF on transfected CHO-K1 cells; also called hSIRPαV2; SIRPαV2
# Procedure: (§1) Reactivity was confirmed using CHO-K1 cells (ATCC CCL-61) that had been transiently transfected, using Lipofectamine 2000, with cDNA encoding the full length open reading frame of hSIRPαV1, hSIRPαV2, hSIRPβ1, hSIRPβL, and hSIRPγ subcloned into the pCI-neo vector (Promega, Madison, Wis.). CHO-K1.hSIRPαV1, CHO-K1.hSIRPαV2, CHO-K1.hSIRPβ1, CHO-K1.hSIRPβL, and CHO-K1.hSIRPγ cells were seeded in culture medium (DMEM-F12 (Gibco) supplemented with 5% New Born Calf Serum (BioWest) and Pen/Strep (Gibco)) in 96-well flat-bottom tissue culture plates and incubated at 37° C., 5% CO₂ and 95% humidity for 24 hours. Subsequently, culture medium was removed and cells were incubated for 1 hour at 37° C., 5% CO₂ and 95% humidity with purified hSIRPα antibodies (used at 10 μg/mL and dilutions thereof). Next, cells were washed with PBS-T and incubated for 1 hour at 37° C., 5% CO₂ and 95% humidity with goat-anti-mouse IgG-HRP (Southern Biotech). Subsequently, cells were washed three times with PBS-T and immunoreactivity against hSIRPαV1, hSIRPαV2, hSIRPβ1, hSIRPβL, and hSIRPγ was visualized with TMB Stabilized Chromogen (Invitrogen). Reactions were stopped with 0.5 M H₂SO₄ and absorbances were read at 450 and 610 nm.
# (§2) The KWAR23 antibody cross-reacts with all members of the SIRP receptor family tested: it binds to hSIRPαV1, hSIRPαV2, hSIRPβ1, hSIRPβL, and hSIRPγ.
# human SIRPγ = target: T2, human SIRPγ (human, UniProt Q9P1W8 29-387); assay: CELISA, CHO-K1 transfectants
# T2 construct: on transfected CHO-K1 cells; also called hSIRPγ
# Procedure: as §1, §2
# [2] = target: T3, hSIRPβ1 transcript variant 3/hSIRPβL (human, UniProt Q5TFQ8 30-398); assay: CELISA, CHO-K1 transfectants
# T3 construct: also called human SIRPβL
# Procedure: as §1, §2
# human SIRPα variant 1 [3] = target: T4, human SIRPα variant 1 (human, UniProt P78324 31-504); assay: CELISA, CHO-K1 transfectants
# T4 construct: full length ORF on transfected CHO-K1 or HEK293 cells; entry includes the signal peptide; also called hSIRPαV1; SIRPαV1
# Procedure: as §1, §2
# human SIRPα variant 2 [4] = target: T1, human SIRPα variant 2; assay: CELISA, CHO-K1 transfectants; remark: listed apart in the source
# Procedure: (§3) Reactivity was confirmed using CHO-K1 cells (ATCC CCL-61) expressing a cDNA encoding the full length open reading frame of hSIRPαV1, hSIRPαV1(P74A), hSIRPαV2, and hSIRPβ1 subcloned into the pCI-neo vector (Promega, Madison, Wis.). CHO-K1.hSIRPαV1, CHO-K1.hSIRPαV1(P74A), CHO-K1.hSIRPαV2, and CHO-K1.hSIRPβ1 cells were seeded in culture medium (DMEM-F12 (Gibco) supplemented with 5% New Born Calf Serum (BioWest) and Pen/Strep (Gibco)) in 96-well flat-bottom tissue culture plates and incubated at 37° C., 5% CO₂ and 95% humidity for 24 hours. Subsequently, culture medium was removed and cells were incubated for 1 hour at 37° C., 5% CO₂ and 95% humidity with purified hSIRPα antibodies (used at 10 μg/mL and dilutions thereof). Next, cells were washed with PBS-T and incubated for 1 hour at 37° C., 5% CO₂ and 95% humidity with goat-anti-mouse IgG-HRP (Southern Biotech). Subsequently, cells were washed three times with PBS-T and immunoreactivity against hSIRPαV1, hSIRPαV1(P74A), hSIRPαV2, and hSIRPβ1 was visualized with TMB Stabilized Chromogen (Invitrogen). Reactions were stopped with 0.5 M H₂SO₄ and absorbances were read at 450 and 610 nm.
# human SIRPα variant 1 [5] = target: T4, human SIRPα variant 1; assay: CELISA, CHO-K1 transfectants; remark: listed apart in the source
# Procedure: as §3
# human SIRPα variant 1 [6] = target: T4, human SIRPα variant 1; assay: CELISA, CHO-K1 transfectants; remark: listed apart in the source
# Procedure: The specificity of monoclonal anti-hSIRPα antibodies (e.g., including the hSIRPα antibodies known in the art, KWAR23 ([…]. Patent CA2939293 A1), 18D5 (Patent WO2017/178653 A2), and various commercially available hSIRPα antibodies) for binding to hSIRPαV1, hSIRPαV1(P74A), and hSIRPβ1 was evaluated by CELISA. Reactivity was confirmed using CHO-K1 cells (ATCC CCL-61) expressing a cDNA encoding the full length open reading frame of hSIRPαV1, hSIRPαV1(P74A), and hSIRPβ1 subcloned into the pCI-neo vector (Promega, Madison, Wis.). CHO-K1.hSIRPαV1, CHO-K1.hSIRPαV1(P74A), and CHO-K1.hSIRPβ1 cells were seeded in culture medium (DMEM-F12 (Gibco) supplemented with 5% New Born Calf Serum (BioWest) and Pen/Strep (Gibco)) in 96-well flat-bottom tissue culture plates and incubated at 37° C., 5% CO₂ and 95% humidity for 24 hours. Subsequently, culture medium was removed and cells were incubated for 1 hour at 37° C., 5% CO₂ and 95% humidity with purified hSIRPα antibodies (used at 10 μg/ml and dilutions thereof). Next, cells were washed with PBS-T and incubated for 1 hour at 37° C., 5% CO₂ and 95% humidity with either goat-anti-mouse IgG-HRP (Southern Biotech), goat-anti-human IgG-HRP (Jackson Immuno Research), or goat-anti-rabbit IgG-HRP (Southern Biotech). Subsequently, cells were washed three times with PBS-T and immunoreactivity against hSIRPαV1, hSIRPαV1(P74A), and hSIRPβ1 was visualized with TMB Stabilized Chromogen (Invitrogen). Reactions were stopped with 0.5 M H₂SO₄ and absorbances were read at 450 and 610 nm.
# human SIRPα variant 1 [7] = target: T4, human SIRPα variant 1; assay: flow cytometry, blockade of DyLight488-hCD47/Fc binding to U-937 cells
# Method in brief: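 THP-1 or U-937 monocyte cells were placed in 96-well round-bottom plates and incubated at 4 °C for 45 minutes in PBS/1% BSA containing FcR Blocking Reagent and a dilution series of anti-SIRPα antibody. After a further wash, cells were resuspended with 0.1 μg/mL DAPI, read by flow cytometry and analyzed in FlowJo. IC50 is defined as the antibody concentration that gives half-maximal inhibition of CD47/Fc binding.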
# T4 sequence (P78324 31-504 limits assumed, change not shown): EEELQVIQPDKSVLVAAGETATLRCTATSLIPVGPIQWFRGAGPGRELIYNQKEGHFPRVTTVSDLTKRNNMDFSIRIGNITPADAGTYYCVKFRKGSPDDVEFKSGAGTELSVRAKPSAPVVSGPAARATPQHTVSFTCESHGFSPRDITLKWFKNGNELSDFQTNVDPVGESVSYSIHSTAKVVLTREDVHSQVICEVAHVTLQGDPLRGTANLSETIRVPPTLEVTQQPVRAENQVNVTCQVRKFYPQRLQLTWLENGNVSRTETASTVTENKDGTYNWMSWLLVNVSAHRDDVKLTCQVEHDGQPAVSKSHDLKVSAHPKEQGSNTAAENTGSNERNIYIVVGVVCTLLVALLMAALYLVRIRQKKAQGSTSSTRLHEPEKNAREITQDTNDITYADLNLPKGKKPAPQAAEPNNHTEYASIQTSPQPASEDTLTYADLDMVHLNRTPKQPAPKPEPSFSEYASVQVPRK
# T1 sequence (P78324 other isoform, or with tags, fused parts or gaps mutant limits assumed): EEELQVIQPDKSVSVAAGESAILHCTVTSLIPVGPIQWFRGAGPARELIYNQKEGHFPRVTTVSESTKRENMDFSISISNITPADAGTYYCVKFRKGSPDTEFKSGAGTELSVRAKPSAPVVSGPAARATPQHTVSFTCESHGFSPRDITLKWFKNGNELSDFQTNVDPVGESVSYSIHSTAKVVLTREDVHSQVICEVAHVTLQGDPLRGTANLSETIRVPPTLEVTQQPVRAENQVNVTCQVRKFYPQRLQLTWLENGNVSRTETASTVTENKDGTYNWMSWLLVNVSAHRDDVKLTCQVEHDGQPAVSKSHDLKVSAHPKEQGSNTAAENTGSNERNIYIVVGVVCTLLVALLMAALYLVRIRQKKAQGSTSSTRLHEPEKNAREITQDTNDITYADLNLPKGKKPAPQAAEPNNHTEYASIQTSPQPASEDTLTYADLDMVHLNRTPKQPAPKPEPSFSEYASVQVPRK
# T3 sequence (Q5TFQ8 30-398 limits assumed, change not shown): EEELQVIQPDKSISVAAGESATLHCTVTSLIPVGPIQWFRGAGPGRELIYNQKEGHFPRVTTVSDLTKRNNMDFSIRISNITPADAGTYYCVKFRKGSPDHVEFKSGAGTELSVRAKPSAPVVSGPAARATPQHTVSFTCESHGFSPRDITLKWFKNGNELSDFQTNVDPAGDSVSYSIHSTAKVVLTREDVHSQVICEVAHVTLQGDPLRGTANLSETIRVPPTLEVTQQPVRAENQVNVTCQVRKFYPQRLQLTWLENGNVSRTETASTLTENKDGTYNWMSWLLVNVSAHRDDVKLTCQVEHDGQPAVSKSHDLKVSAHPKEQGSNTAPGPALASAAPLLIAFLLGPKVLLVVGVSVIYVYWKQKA
# T2 sequence (Q9P1W8 29-387 limits assumed): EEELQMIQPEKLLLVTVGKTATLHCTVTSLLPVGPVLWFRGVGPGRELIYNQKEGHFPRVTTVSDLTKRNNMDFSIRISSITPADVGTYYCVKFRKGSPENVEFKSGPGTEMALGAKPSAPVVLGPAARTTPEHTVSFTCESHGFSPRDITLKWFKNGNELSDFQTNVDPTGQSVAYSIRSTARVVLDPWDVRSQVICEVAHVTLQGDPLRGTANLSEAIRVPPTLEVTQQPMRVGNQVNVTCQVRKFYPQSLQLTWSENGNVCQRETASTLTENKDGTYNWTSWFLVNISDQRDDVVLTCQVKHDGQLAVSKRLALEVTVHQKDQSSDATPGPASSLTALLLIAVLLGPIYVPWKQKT
EC50 (human SIRPα variant 2 [1]),EC50 (human SIRPγ),EC50 [2],EC50 (human SIRPα variant 1 [3]),EC50 (human SIRPα variant 2 [4]),EC50 (human SIRPα variant 1 [5]),EC50 (human SIRPα variant 1 [6]),IC50 (human SIRPα variant 1 [7]),Binder
0.062 nM,0.043 nM,0.097 nM,0.067 nM,0.049 nM,0.07 nM,0.135 nM,,"KWAR23 (antibody, V domains shown) VH: EVQLQQSGAELVKPGASVKLSCTASGFNIKDYYIHWVQQRTEQGLEWIGRIDPEDGETKYAPKFQDKATITADTSSNTAYLHLSSLTSEDTAVYYCARWGAYWGQGTLVTVSS VL: QIVLTQSPAIMSASPGEKVTLTCSASSSVSSSYLYWYQQKPGSSPKLWIYSTSNLASGVPARFSGSGSGTSYSLTISSMEAEDAASYFCHQWSSYPRTFGAGTKLELK"
1.63 nM,1.48 nM,0.639 nM,1.63 nM,0.645 nM,0.773 nM,0.307 nM,19.5 nM,"hSIRPα.50A (antibody, V domains shown, light chain constant domain not tied; also called mouse hSIRPα.50A; hSIRPα.50A.mIgG1) VH: QVQLQQSGPELVKPGASVRISCKASGFTFTNYYIHWVKQRPGQGLEWIGWIYPGNVNTKYNEKFKAKATLTADKSSTTAYMQLSSLASEDSAVYFCARPTIIATDFDVWGAGTTVTVSS VL: DIVMTQSHKFMSTSVGDRVNITCKASQGVGTAVGWYQQKPGQSPRLLIYWASTRHTGVPDRFTGSGSGTDFSLAISNVQSEDLADYFCQQYSTYPFTFGGGTNLEIK"
,,,,0.093 nM,0.114 nM,0.053 nM,1.34 nM,"hSIRPα.40A (antibody, mouse IgG1, kappa, V domains shown, mouse antibody, full chains without signal peptide; also called mouse hSIRPα.40A) VH: EVQFQQSGTVLARPGTSVKMSCKASGSTFTSYWMHWVKQGPGQGLQWIGAIYPVNNDTTYNQKFKGKAELTVVTSTSTAYMEVSSLTNEDSAVYYCTRSFYYSLDAAWFVYWGQGTLVTVSA VL: DIQMTQSPSSLSASLGERVSLTCRASQDIGSRLNWLQQEPDGTIKRLIYATSSLDSGVPKRFSGSRSGSDYSLTISGLESEDFVDYYCLQYASSPFTFGGGTKLEINR"
